From the DeepSol protein solubility set

Experiment: soluble on expression in E. coli; label from the status in PepcDB or PDB records

Sequence: MGSDKIHHHHHHMTLTTKTIHVIGASFAGLAFVDKYKDLNPDSQIILIDKESCPNYIPNGINQLFRGDIQDLSDAMWGRACLAAQIESNHRFIQAEVLAIEAPSNTLLLKDSQGRVFEEGYETLVCAMGASPQSHYIETSQTNKVLVTKYYEESQASLKLIEASQEVLVIGAGLIGLDLAYSLSLQGKRVKLIEAAERPDFYQTDAELIAPVMAEMSTHHVTFINNKRVTAIHEIEGKVVAHTEQGDTFQGDLAILAINFRPNTHLLQGQVACALDKTILVNENLQTSQANIYAIGDMVSLHFGILGMDYYTPLINQAMKTGQALALHLAGYPIPPLQTVKVLGSSHFDYYRASVGVTEEEAELYMDTCSYLYQNGDSKNLFWLKLIARKTDGILIGAQLLSKTNALVIANQLGQALALKVTDADLAFQDFLFLQGHSDLAYHLHEACLKLFEKRLRHED
- soluble on expression in E. coli: not soluble

Sequence: MGSDKIHHHHHHMCNSYLEYTAAGVSDLRPYQPGKPLAELERELGIRDAIKLASNENPLGPSPLALAAVREVLPALAQYPEGSAPELRALLARQLDLDPGQFIFGNGSDQVVELAVRALAGPGTEVIVSQYAFAAYAIAAQASGATVRVAPARDYGHDLDAMASLLNANTRLVFIANPNNPTGTYLTADALETFIDSVPSHALVVLDEAYLELMDAADYPDGRRWLRRFGNLMLTRTFSKAYGLAGLRCGYGIGHPDLMAVLERVRQPFNVNTLAQVAAHAALTDRAHLQATLANNRQGIVALRDGLCNLGLTILPPAGNFTAFAVPGGGQRVYEALLLRGVIVRPLTPYGMPDHLRVSVGLPVENQRFLTMLGEVL
- soluble on expression in E. coli: not soluble

Sequence: GMNKKTQLLEVIAALPEELVDQALNYVQMLQNPIQITPGVCGGQARIRNTRIPVWTLVAYRQQGAPDKELLANYPGLTAEDLSAAWHYYEQNPEQIDREIAQDDLV
- soluble on expression in E. coli: soluble

Sequence: QGMISFTQQNEQEADRIGIQVLQRSGFDPQAMPTFLEKLLDQARYSSRPPEILLTHPLPESRLADARNRANQMRPIVVQSSEDFYLAKVRTLGMYNSGRNQLTSDLLDEWAKGNVRQQRAAQYGRALQAMEANKYDEARKTLQPLLAAEPGNAWYLDLATDIDLGQNKANDAINRLKNARDLRTNPVLQLNLANAYLQGGQPQEAANILNRYTFNNKDDSNGWDLLAQAEAALNNRDQELAARAEGYALAGRLDQAISLLSSASS
- soluble on expression in E. coli: not soluble

Sequence: MGSDKIHHHHHHMSVLIECRDLSHSYGEKTVLHDLSFTVRQGGVFGLLGKNGAGKSTTINILMGFLRPGSGSCRVLGEPSHALSPHARRRIGLLHEGFIQYDFMTIAELERYYAAFYPLWDRSVFFDLTDRLQVPYSRRISCLSCGQRSQVVLGLIMAQQPQLMILDDYSMGLDVGYRRLFIDFLREYVAKRGTTVLLTSHVVQELDKIVDNMIVLREGRVAVSGSKKEFMDSFRCYSFARSPASDALHADTVLENVEHMGSVTTVYAFADGEPVARHLRDRGVDPQNMTPVPMDFEDAFVGLTGKY
- soluble on expression in E. coli: not soluble

Sequence: MAHHHHHHMCTTNLENLVVDSVTRTGNNNASNTFLGDVLLASNKESQNITQYHPGVSSKDQPDVCGDVRYSFADIADIIRGTDVWSKQSQQMLLQGYLEQTFGKIKDKFKGTEKYDSDSHHPQIL
- soluble on expression in E. coli: not soluble

Sequence: MGSDKIHHHHHHMQDCDVRIFYIFKSLYDSGSATFVSQQHSVSPSKVSRYIAEMREVYNDSLFIRRKTHFVPTKKAREIYPKICEIIELIEGLSANRHELEVKKECVIAVPATLCVGLPEHLNRVIKQEGLDISLKVMSSHREICTKVINGEICIAITNRACTQTMDCNPKHSNLLHVEPISVGEHVYVVSAATGAIWQEKISLDNIAKYPFVVTQVSGFNDEKDPFEVYCEQRGLALNVFLKTQNLASMIEALMSENTISFIGPNSAAAFIAKVPSLRVEKLENCEYQRLHEAMHKPTYSMIYLKRNIDVIPPLIKSEVLRFISDSVCDF
- soluble on expression in E. coli: not soluble

Sequence: MGSDKIHHHHHHMDELLEKAKKVREAWDVLRNATTREKNKAIKKIAEKLDERRKEILEANRIDVEKARERGVKESLVDRLALNDKRIDEMIKACETVIGLKDPVGEVIDSWVREDGLRIARVRVPIGPIGIIYESRPNVTVETTILALKSGNTILLRGGSDALNSNKAIVSAIREALKETEIPESSVEFIENTDRSLVLEMIRLREYLSLVIPRGGYGLISFVRDNATVPVLETGVGNCHIFVDESADLKKAVPVIINAKTQRPGTCNAAEKLLVHEKIAKEFLPVIVEELRKHGVEVRGCEKTREIVPDVVPATEDDWPTEYLDLIIAIKVVKNVDEAIEHIKKYSTGHSESILTENYSNAKKFVSEIDAAAVYVNASTRFTDGGQFGFGAEIGISTQRFHARGPVGLRELTTYKFVVLGEYHVRE
- soluble on expression in E. coli: soluble

Sequence: MSQVFKDFDLSSVWKTNSWADENYKEAPFTPEILAAVESELGYKLPQSFIELMAVQNGGIFVKNCFPTTQRNSWAENHVQICEVSGIGFEKEGSLCGAMGQKLWLEEWEYPPIGVYFANDPSGGHAMFALDYRACGKDGEPKVVFVEQESDFEIVELAPDFETFIRSLRHEDEFIDEEI
- soluble on expression in E. coli: not soluble

Sequence: MALKVIKISRVSPATASVDPLIVPLSFFDLQWLKLNPTEQVFFYKLTESSSSRDVFYSSILPKLERSLSLILTHFRLFTGHLKWDSQDPKPHLVVLSGDTLSLTVAETDADFSRISGRGLRPELELRPLIPELPIYSDSGAVVSLQVTLFPKQGFCIGTTAHHVVLDGKTAEKFNKAWAHTCKHGTIPKILPTVLDRSVVNVPAGLEQKMLELLPYLTEDDKENGRTLKLPPVKEINAKDNVLRITIEISPENIEKLKERAKKESTRAELHLSTFVVTFAHVWTCMVKARSGDPNRPVRFMYAADFRNRLEPPVPVTYFGTCVLAMDFYKYKAKEFMGEDGFVNTVEILSDSVKRLASQGVESTWKVYEEGTKTMKWGTQLLVVNGSNQIGMYETDFGWGRPIHTETMSIYKNDEFSMSKRRDGIGGVEIGISLKKLEMDTFLSLFYKWIGN
- soluble on expression in E. coli: soluble

Sequence: MEFPFDVDALFPERITVLDQHLRPPARRPGTTTPARVDLQQQIMTIIDELGKASAKAQNLSAPITSASRMQSNRHVVYILKDSSARPAGKGAIIGFIKVGYKKLFVLDDREAHNEVEPLCILDFYIHESVQRHGHGRELFQYMLQKERVEPHQLAIDRPSQKLLKFLNKHYNLETTVPQVNNFVIFEGFFAHQHPPARKLPPKRAEGDIKPYSSSDREFLKVAVEPPWPLNRAPRRATPPAHPPPRSSSLGNSPERGPLRPFVPEQELLRSLRLCPPHPTARLLLAADPGGSPAQRRRTR
- soluble on expression in E. coli: not soluble

Sequence: MLPSRKRLVLEQLGKTLSRFAGLQAVSPPARGWIRAIREALGMSGVQFAARLGVTPPRVTALERDELSGAVTMKTMRQAAEALDCVFLYALVPRTSLEETIRRQAEAVARERLLRVSHTMMLESQQLSEEEMKQALDAAVEELVRTMPKDLWSKAP
- soluble on expression in E. coli: not soluble

Sequence: MEQAPPDPEKLLQPGPLEPLGGPGAVLEAAVGEENEGTREDGSGVDTMTGNNFWLKKIEISVSEAEKRTGRNAVNMQETYTAYLIETRSVEHADGQSVLTDSLWRRYSEFELLRNYLLVYYPHVVVPPLPEKRAEFVWHKLSADNMDPDFVERRRVGLENFLLRVASHPVLCRDKIFYSFLTQEGNWKETVNETGFQLKADSRLKALNATFRVKNPDKRFTELRHYSDELQSVISHLLRVRARVADRLYGVYKVHGNYGRVFSEWSAIEKEMGDGLQSAGHHMDVYASSIDDILEDEEHYADQLKEYLFYAEALRAVCRKHELMQYDLETAAQDLAAKKQQCEELATGTVRTFSLKGMTTKLFGQETPEQREARIKVLEEQINEGEQQLKSKNLEGREFVKNAWADIERFKEQKNRDLKEALISYAVMQISMCKKGIQVWTNAKECFSKM
- soluble on expression in E. coli: soluble

Sequence: MSRQDPRTIEFLESVGKGEIPPSLVQQYPGKEIDFKVNRHHEEYVAPKMKPFGGSGVRLGNVVPTVLGQSSSSATTAGTSSATTDHNPDHTAENEAKQLEDAKKELSTNMNEPTTNIQIRLPNNQRLVGIFNHSHTLEAVRTFICTARPDMIYAPFQMMAAYPPKPFEDESQTLKDANVLNSVVAVKILPTTN
- soluble on expression in E. coli: not soluble

Sequence: MSLTDPAPEPEPPVEGQWTALTASPDTWDETKRADISYQLLLYSFADSDGDGYGDLNGVTQKLDYLNQLGVKALWLSPIHPCMSYHGYDVTDYTKVNPQLGTESDFDRLVTEAHNRGIKIYLDYVMNHTGTAHPWFTEASSSSESPYRNYYSFSEDPKTDIAAGKIAMITQEGAAGYNAAEWFQVSDETAAVKGLLKFTLDWSNAPSPILVVSTGTKADEDNPDTGTDNAKYLYYGEDICKKFYDKGNNIYELTVDFESTWGLLIRTSNASFWPSGTKYGASSSSEKLALNKDFKLTNAGNPANIMFDSQQITYFHSHFCTDWFADLNYGPVDQAGESPAYQAIADAAKGWIARGVDGLRLDAVKHIYHSETSEENPRFLKMFYEDMNAYYKQKGHTDDFYMIGEVLSEYDKVAPYYKGLPALFEFSFWYRLEWGINNSTGCYFAKDILSYQQKYANYRSDYIEATKLSNHDEDRTSSKLGKSADKCKLAAAVLLTSAGHPYIYYGEELGLYGTKDNGDEYVRSPMLWGDSYTTNYTDKTDATVSKNVKTVADQQADTHSLLNIYFSLTRLRNTYPALAEGNMTKHSVYNEGHHHHHH
- soluble on expression in E. coli: not soluble

Sequence: MSLGYDHPEILLNFKKDADIWDMMLNTNYMKTCREVVFEYLGVKNGDTVLEVGCGSRSPVYFASKVAPNGAYTGVDISKKLIRVAEGRLKRSGVECVNLKSMDFSETITKYKHDYVLCIHTLSYAHSMKLFLKKMMESLRKGGKLLIMEEFFTENINTNAELFEFYNHLNKYFKNYVSRTEILKEIEMLGYDFKYELLGNNCIVVERIEGHHHHHH
- soluble on expression in E. coli: not soluble

Sequence: MASTPCAACKLLRRKCTQECVFAPYFPPTNPQKFIFVHRVFGASNVTKILNDLPPDQREDTVNSLFYEAEARIRDPIYGCVGLISFLQQYLKKIQQDLLTAKEELVGYLGPDAVIPPPYLPPIGNNPPPNFMMSMEGMPPGVIPQGEPLMIREPNMSQQHHHQQPQDEQLQFIASDAQRMAAMMLERGDQQGMFNGYGIDNNGSVTATGFNQMDVNDQGAGGSLSGPSLALGSFGDAYQMGQETEHGHINHDQLQTQLMLQPPLQEGQEQTEEGQFLMQPMGQENLHDEEEEEELEPPVKWRMSENKEASF
- soluble on expression in E. coli: not soluble

Sequence: MGSDKIHHHHHHMNQSNCIVAQSGGPTVAINASLAGVIAGVKSSEKYDICYGAVNGILGILNENYLNLSDIFADDANLEKLKTTPAMYLGSCRHKLPDYKDDDSPYVYIFHQFDKLSIKAFFYIGGNDSMDTVLKLSDYAKKINSDVKIIGIPKTIDNDLCMTDHTPGFGSAAKYIASSMLEIAHDTFIYAVKSVTIVEIMGRDAGWLTAASALARNEYNTAPQFIYLPEVNFDKDKFVADIKEALAHTNNVIVAVSEGIHDADGSYITSSKAACDQFGHQQLSGAGKALEFIVKENIGVKVRSVEVNVLQRCASHLASLTDIEESFAQGKKGVTIAAEGVTASMVCLKRISNKPYQVEYTYSAIKDIANEAKSVPREWINDAGNDVKPELIEYLKPLIQGETAVAYKNGLPDYMDVSHLHKCN
- soluble on expression in E. coli: not soluble

Sequence: MKNDTAALAADIVDFWKKAGPDKWFDKDAAFDNHFHDRFRDAHFAAARRELDGWLEGAESSLALMLLLDQFPRNCFRGTAHMYATDPLARFFADEAIRRGHDQAVSEDLRVFFYLPFSHAEDIAAQQRACDLNQPLGGLYLHHAEEHRDIVERFGRFPHRNGILLRETTPEERQYLEEGGFSG
- soluble on expression in E. coli: soluble

Sequence: LMINDVPGLVTAWWDEELQALRIKWFTEYAEGSAVADAVEFAMTYVNENGVKNWLCDLSESQEALKAEDQEWVQTEFKRLIAESSLEKVVLIPPLPETGQDTEWLKDWEANTKRDYGGQIDARLLSEEGEIQRFFEKG
- soluble on expression in E. coli: not soluble
